The values that follow come from patent US8258256 (Johns Hopkins, dated 2012).

Ends that are not written are not given here. * marks the point of attachment. Biotin = O=C1N[C@H]2[C@H](CS[C@H]2CCCCC(=O)*)N1

B1: WQPDTAHHWATL (SEQ ID NO:1) phage (peptide)
peptide: WQPDTAHHWATL
modifications: not fully specified
notes: Whole M13 phage particle displaying the 12-mer; tested as phage, in pfu/ml; not shown: M13 phage coat protein III
B2: selected phage with insert SEQ ID NO 33 (peptide)
peptide: AWPENPSRRPFT
modifications: not fully specified; also: displayed on M13 phage pIII
notes: Selected in three rounds on His-PSMA; not tested singly; not shown: M13 phage coat protein III
B3: selected phage with insert SEQ ID NO 31 (peptide)
peptide: KHMHWHPPALNT
modifications: not fully specified
notes: as for B2
B4: selected phage with insert SEQ ID NO 32 (peptide)
peptide: HHEWTHHWPPPP
modifications: not fully specified; also: displayed on M13 phage pIII
notes: as for B2
B5: selected phage with insert SEQ ID NO 34 (peptide)
peptide: YRHWPIDYPPPP
modifications: not fully specified; also: displayed on M13 phage pIII
notes: as for B2
B6: selected phage with insert SEQ ID NO 14 (peptide)
peptide: KSLSRHDHIHHH
modifications: not fully specified
notes: as for B2
B7: selected phage with insert HNAYWHWPPSMT (SEQ ID NO 2) (peptide)
peptide: HNAYWHWPPSMT
modifications: not fully specified
notes: as for B2
B8: selected phage with insert SEQ ID NO 29 (peptide)
peptide: GHLIPLRQPSHQ
modifications: not fully specified
notes: as for B2
B9: selected phage with insert SEQ ID NO 8 (peptide)
peptide: SLDSMSPQWHAD
modifications: not fully specified; also: displayed on M13 phage pIII
notes: as for B2
B10: selected phage with insert SEQ ID NO 35 (peptide)
peptide: MIHTNHWWAQDR
modifications: not fully specified; also: displayed on M13 phage pIII
notes: as for B2
B11: selected phage with insert SEQ ID NO 10 (peptide)
peptide: NGFSHHAPLMRY
modifications: not fully specified
notes: as for B2
B12: selected phage with insert SEQ ID NO 6 (peptide)
peptide: NSFPLMLMHHHP
modifications: not fully specified; also: displayed on M13 phage pIII
notes: as for B2
B13: selected phage with insert SEQ ID NO 36 (peptide)
peptide: TPLPSFTDGHHT
modifications: not fully specified; also: displayed on M13 phage pIII
notes: as for B2
B14: selected phage with insert SEQ ID NO 9 (peptide)
peptide: SEFIHHWTPPPS
modifications: not fully specified; also: displayed on M13 phage pIII
notes: as for B2
B15: selected phage with insert SEQ ID NO 30 (peptide)
peptide: WTHHHSYPRPLQ
modifications: not fully specified
notes: as for B2
B16: selected phage with insert SEQ ID NO 4 (peptide)
peptide: YTSPHHSTTGHL
modifications: not fully specified; also: displayed on M13 phage pIII
notes: as for B2
B17: selected phage with insert SEQ ID NO 13 (peptide)
peptide: AGFQHHPSFYRF
modifications: not fully specified
notes: as for B2
B18: selected phage with insert SEQ ID NO 17 (peptide)
peptide: QRSPMMSRIRLP
modifications: not fully specified
notes: as for B2
B19: non-selected control peptide QMARIPKRLARHK-biotin (peptide)
peptide: QMARIPKRLARHK(Biotin)
notes: also called control consisting of a positively charged 12 amino acid peptide
B20: dimeric WQPDTAHHWATL (SEQ ID NO:1) peptide (as used in the NAALADase assay) (peptide)
peptide: WQPDTAHHWATL
chain: Lys
modifications: not fully specified (C-terminus); printed as (WQPDTAHHWATL)2-K; also: two copies of chain 1, C-termini joined to alpha and epsilon amines of branching Lys, C-terminal label on Lys not given here
B21: WQPDTAHHWATLK (Biotin) monomeric peptide (peptide)
peptide: WQPDTAHHWATLK(Biotin)-OH
modifications: N-terminus assumed
SMILES: CC(C)C[C@H](NC(=O)[C@@H](NC(=O)[C@H](C)NC(=O)[C@H](Cc1c[nH]c2ccccc12)NC(=O)[C@H](Cc1c[nH]cn1)NC(=O)[C@H](Cc1c[nH]cn1)NC(=O)[C@H](C)NC(=O)[C@@H](NC(=O)[C@H](CC(=O)O)NC(=O)[C@@H]1CCCN1C(=O)[C@H](CCC(N)=O)NC(=O)[C@@H](N)Cc1c[nH]c2ccccc12)[C@@H](C)O)[C@@H](C)O)C(=O)N[C@@H](CCCCNC(=O)CCCC[C@@H]1SC[C@@H]2NC(=O)N[C@@H]21)C(=O)O
notes: Synthetic, Fmoc chemistry; also called biotinylated monomeric peptide

T1 sequence (Q04609 other isoform, or with tags, fused parts or gaps limits assumed): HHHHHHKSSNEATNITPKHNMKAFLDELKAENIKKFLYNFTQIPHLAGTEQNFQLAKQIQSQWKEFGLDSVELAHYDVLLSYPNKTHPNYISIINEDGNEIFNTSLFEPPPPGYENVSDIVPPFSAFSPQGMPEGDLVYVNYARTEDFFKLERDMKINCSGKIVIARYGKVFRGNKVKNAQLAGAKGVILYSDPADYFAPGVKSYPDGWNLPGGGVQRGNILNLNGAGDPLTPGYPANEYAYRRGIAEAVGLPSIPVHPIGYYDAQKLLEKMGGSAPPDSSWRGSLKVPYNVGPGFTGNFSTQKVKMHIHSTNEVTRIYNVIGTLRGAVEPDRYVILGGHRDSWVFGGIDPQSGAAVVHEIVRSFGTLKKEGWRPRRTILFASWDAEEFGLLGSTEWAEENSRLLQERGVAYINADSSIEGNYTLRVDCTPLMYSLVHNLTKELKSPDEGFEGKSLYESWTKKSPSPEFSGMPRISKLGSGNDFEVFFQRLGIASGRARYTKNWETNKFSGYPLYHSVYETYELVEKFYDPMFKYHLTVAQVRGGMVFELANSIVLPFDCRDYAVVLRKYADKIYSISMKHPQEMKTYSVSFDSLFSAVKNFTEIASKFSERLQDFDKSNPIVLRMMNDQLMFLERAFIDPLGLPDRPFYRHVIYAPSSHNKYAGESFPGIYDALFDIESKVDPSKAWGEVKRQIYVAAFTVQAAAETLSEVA

One experiment concerns the target T1, His-PSMA (recombinant extracellular domain of prostate specific membrane antigen with amino-terminal His-6 … (UniProt Q04609 44-750, limits assumed)).
T1 construct: extracellular domain; Expressed in Drosophila S2 cells from pMT-His-PSMA (pMT/BiP/V5-HisA backbone) and purified on Ni-NTA; also called His-tagged PSMA; recombinant PSMA
The experiment in a line: phage ELISA on immobilized His-PSMA against immobilized BSA, phage at 10^10 pfu/ml, anti-M13-HRP. (In general: In an ELISA, binding on a coated surface is turned into a signal by an enzyme label.)
On to B1, for which the “fold higher binding to PSMA compared to BSA” value is about 10 fold.

In the next experiment the target is T1, His-PSMA (recombinant extracellular …). The experiment in a line: phage display selection in solution on His-PSMA, three rounds, capture with anti-His magnetic beads. The method, then: Phage Library Screening—Peptides from the random M13 12-mer phage library were selected using His-tagged PSMA as the target, which was then captured using magnetically labeled Anti-His Tag Antibody. To remove non-specific phage binding to Anti-His antibody and other components of the magnetic separation system, the library was depleted 2 times with the His-MACS system. First Round of Screening: The final eluate from negative screening was incubated with 0.8 μgs of PSMA for 30 mins at room temperature. 50 uls of His-MACS were added and allowed to bind for 30 mins at room temperature. The incubation mixture was loaded onto a MACS column and washed twice with 1 ml of PBS/0.1% Tween 20 (PBST). Beads containing PSMA bound to phage were collected and amplified using PhD Kit protocol (NEB, Auburn, Mass.). Second Round Screening: Negative screening was repeated as above except with more BSA (0.5%) and longer incubation (1 hr at 4° C.). 10^10 pfu from the first round of screen were then incubated with PSMA in 1% BSA for 6 hrs at 4° C. His-MACS in 3% BSA were incubated for 30 mins and bound phages were collected and amplified as in round one. For third round screening the same method was used except Mouse IgG solution (100 μgs/ml) was added to the blocking solution. Individual phage were selected and sequenced after third round of screening.
To decrease the selection of non-specific low affinity binders, phage screening was performed in solution and incorporated negative screening steps using other selection components (i.e. antibodies, magnetic beads, etc.) to remove many background binders (22). Thus, for this study the phage library was incubated with magnetically labeled Anti-His_6 (SEQ ID NO: 25) antibody […]. After negative selection steps, His-PSMA was incubated with the phage library and phages bound to His-PSMA were captured using magnetically labeled Anti-His_6 (SEQ ID NO: 25) antibody, FIG. 1.
Turning to B2, the binding result was “binds”.
For B3, the binding result is reported as “binds”.
In the case of B4, the binding result is given as “binds”.
As to B5, the binding result is on record as “binds”.
Same read-out and setting: as for B6, the entry is “binds”; as for B7, “binds”; as for B8, “binds”.
On the same count and under the same terms, with B9 the entry was “binds”.
For B10, the binding result is “binds”.
Take B11: the binding result was “binds”.
Consider B12, for which the binding result is “binds”.
Regarding B13, the binding result is recorded as “binds”.
With B14, the binding result was “binds”.
As for B15, the binding result is recorded as “binds”.
Regarding B16, the binding result is reported as “binds”.
With B17, the binding result is recorded as “binds”.
B18: the binding result is given as “binds”.

Another experiment has the same target. The experiment in a line: ELISA, biotinylated peptide on immobilized PSMA or BSA. An excerpt:
(§1) Recombinant PSMA (0.625 µgs) and BSA (25 µgs/ml) were immobilized and indicated concentrations of the biotinylated […] […] Results are the mean binding in 4 replicate wells each ±S.D.
Turning to B19, the binding result is “no binding”.

Another experiment shares this target. The experiment in a line: cell-based or functional assay.
Take WQPDTAHHWATL [monomeric WQPDTAHHWATL (SEQ ID NO:1) peptide (as used in the NAALADase assay)]: the “inhibition of NAAG hydrolysis (NAALADase activity of PSMA), IC50” value came out at 23 µM.
Regarding B20, the “fold better inhibition of PSMA than the monomer” value is about 10 fold and the “inhibition of NAAG hydrolysis (NAALADase activity of PSMA), IC50” value amounted to 2.2 µM.

The target is the same in the next experiment. The experiment can be described thus: ELISA, biotinylated peptide on immobilized PSMA against immobilized BSA.
Text: as §1
Regarding B21, the binding result is “binds”.
